Source: paper doi:10.1101/2023.01.25.525455

Experiments:
[1] = biological target: GFP-tagged VPS35L(I761G) (human) (UniProt Q7Z3J2); experiment: co-IP
[2] = biological target: GFP-tagged VPS35L with complete deletion of the β-hairpin (human) (UniProt Q7Z3J2); experiment: co-IP
Sequence of GFP-tagged VPS35L with complete deletion of the β-hairpin (human) (Q7Z3J2 whole entry, stated change not applied): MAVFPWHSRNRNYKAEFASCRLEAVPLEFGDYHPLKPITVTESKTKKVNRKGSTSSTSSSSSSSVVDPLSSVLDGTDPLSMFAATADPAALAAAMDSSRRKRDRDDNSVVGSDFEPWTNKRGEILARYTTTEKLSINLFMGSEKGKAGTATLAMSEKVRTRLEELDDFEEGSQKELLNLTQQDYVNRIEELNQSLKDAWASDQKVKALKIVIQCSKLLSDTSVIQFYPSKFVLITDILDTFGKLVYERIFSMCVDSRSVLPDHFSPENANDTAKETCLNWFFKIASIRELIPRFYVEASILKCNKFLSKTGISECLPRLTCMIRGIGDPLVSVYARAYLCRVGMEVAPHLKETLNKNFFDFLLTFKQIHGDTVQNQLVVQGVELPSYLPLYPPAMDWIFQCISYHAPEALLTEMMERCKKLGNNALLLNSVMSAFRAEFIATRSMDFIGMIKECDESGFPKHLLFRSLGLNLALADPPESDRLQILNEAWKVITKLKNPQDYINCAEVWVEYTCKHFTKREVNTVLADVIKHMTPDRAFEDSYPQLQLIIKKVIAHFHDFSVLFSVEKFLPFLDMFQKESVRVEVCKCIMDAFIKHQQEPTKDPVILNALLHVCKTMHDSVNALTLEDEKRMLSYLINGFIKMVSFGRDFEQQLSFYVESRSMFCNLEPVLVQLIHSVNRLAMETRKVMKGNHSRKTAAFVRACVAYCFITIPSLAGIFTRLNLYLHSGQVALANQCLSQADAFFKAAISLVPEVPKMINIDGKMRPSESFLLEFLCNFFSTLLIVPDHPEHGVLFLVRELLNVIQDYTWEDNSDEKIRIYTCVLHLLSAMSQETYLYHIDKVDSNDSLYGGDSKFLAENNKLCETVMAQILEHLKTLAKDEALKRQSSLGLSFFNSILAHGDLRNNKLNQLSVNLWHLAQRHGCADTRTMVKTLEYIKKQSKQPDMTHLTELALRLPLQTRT

Sequence of GFP-tagged VPS35L(I761G) (human) (Q7Z3J2 whole entry I761G): as the sequence (Q7Z3J2 whole entry, stated change not applied) above, with I761G counted along it

- percent reduction in binding (against wild type) [1]: > 50%
- percent reduction in binding (against wild type) [2]: > 50%
Substance: VPS29 (endogenous, HEK293T) (from UniProt Q9UBQ0 1-182) (natural protein)
